# In publication PMC10267580, “Structural basis of ELKS/Rab6B interaction and its role in vesicle capturing enhanced by liquid-liquid phase separation” (The Journal of Biological Chemistry, 2023):
# What was measured:
# [1] = target: T1, Rab6B^Q72L, GTPase domain (residues 8-176), constitutively active mutant (mouse, UniProt P61294 8-176, Q72L); assay: SEC; analytical gel filtration, Superdex 200 Increase 10/300 GL, 50 mM Tris pH 7.5, 100 mM NaCl, 2 mM MgCl2, 1 mM DTT; settings: both partners purified
# T1 construct: Rab6B, mouse, GenBank NM_173781.4, GTPase domain residues 8-176, with Q72L; Used in analytical gel filtration and ITC; The methods tell of tag cleavage (HRV 3C) only for crystallization, so the Trx-His6 tag was probably still on; also called continuously active mutant Rab6B^Q72L; active form of Rab6B; source: E. coli BL21(DE3), purified (Ni2+-NTA, size-exclusion chromatography)
# T1 sequence (P61294 8-176 Q72L): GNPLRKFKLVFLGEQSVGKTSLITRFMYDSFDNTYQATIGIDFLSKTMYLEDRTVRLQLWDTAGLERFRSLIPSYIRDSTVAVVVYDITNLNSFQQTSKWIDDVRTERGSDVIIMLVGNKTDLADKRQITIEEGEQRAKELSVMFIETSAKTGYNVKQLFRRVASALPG
# [2] = target: T1, Rab6B^Q72L, GTPase domain (residues …); assay: ITC; MicroCal PEAQ-ITC, 25 °C, 50 mM Tris pH 7.5, 100 mM NaCl, 2 mM MgCl2; typically one protein (400 μM) in the syringe into its binding protein (40 μM) in the cell; settings: both partners purified
binding result [1],Kd [2] [µM],Binder
binds,,"ELKS1 C-terminal coiled-coil region (residues 761-927) (domain or fragment, rat, UniProt Q811U3 761-927, looked up, ELKS1 (Rab6IP2, CAST, ERC), rat, GenBank AY174115.1, residues 761-927; also called C-terminal fragment of ELKS1; source: E. coli BL21(DE3), purified (Ni2+-NTA, size-exclusion chromatography)) QVKDQNKKVANLKHKEQVEKKKSAQMLEEARRREDSLSDSSQQLQVEELLMAMEKVKQELESMKAKLSSTQQSLAEKETHLTNLRAERRKHLEEVLEMKQEALLAAISEKDANIALLELSSSKKKTQEEVAALKREKDRLVQQLKQQTQNRMKLMADNYEDDHFRSS"
,~8,"ELKS1_RBD, Rab-binding domain of ELKS1 (residues 849-922) (domain or fragment, rat, UniProt Q811U3 849-922, looked up, As used in analytical gel filtration and ITC; source: E. coli BL21(DE3), purified (Ni2+-NTA, size-exclusion chromatography)) RKHLEEVLEMKQEALLAAISEKDANIALLELSSSKKKTQEEVAALKREKDRLVQQLKQQTQNRMKLMADNYEDD"
